Numbering of substitutions follows the chain as printed. Where two headings read alike, the source gives them in different places. Each block holds one molecule with its values, some of them ahead of it.
Assays:
Assay in all cases: SPR
[1] = target: monomeric streptavidin variant mSA, wild type
[2] = target: monomeric streptavidin variant mSA, wild type; remark: listed apart in the source
[3] = target: monomeric streptavidin variant mSA with the S27A mutation

Molecule: Smt3 SUMO protein biotinylated at the N-terminus with biotin C2 maleimide (from UniProt Q12306 1-101) (natural protein)
- Kd [1]: 9.6 nM

B3: 4NBX.B-biotin103 variant v119 (VHH)
VHH: QVQLQESGGGLAQAGGSLRLSCAASGRTFSHAPMAWFRQPPGKEREFVAAGSSTGRTTYYADSVKGRFTISRDNAKNTVYLQMNSLKPEDTAVYYCAAAPYGCSHYRDEYAYWGQGTQVTVSS
- Kd [2]: 0.9 nM

The next lines start with the values.

- Kd [2]: 0.2 nM
- Kd [3]: 54 nM
B1: 4NBX.B-biotin103 variant v186_Fr (VHH)
VHH: QVQLQESGGGLVQAGGSLRLSCAASGRTFSRSPMAWYRQPPGKEREFVAAGSSTGTTTYYADSVKGRFTISRDNAKNTVYLQMNSLKPEDTAVYYCAAAPLGCARKFAESAYWGQGTQVTVSS

- Kd [2]: 0.12 nM
- fold higher ka than v119 [2]: 4 fold
- fold lower kd than v119 [2]: 2 fold
B2: 4NBX.B-biotin103 variant v149 (VHH)
VHH: B3 VHH with H31R, A32S, S104A, H105R
